{"source": "patent US6558913", "molecular_target": "factor Xa-activated factor V(Q506) (UniProt P12259)", "sequence (P12259 29-737 R534Q, chain 1 of 2)": "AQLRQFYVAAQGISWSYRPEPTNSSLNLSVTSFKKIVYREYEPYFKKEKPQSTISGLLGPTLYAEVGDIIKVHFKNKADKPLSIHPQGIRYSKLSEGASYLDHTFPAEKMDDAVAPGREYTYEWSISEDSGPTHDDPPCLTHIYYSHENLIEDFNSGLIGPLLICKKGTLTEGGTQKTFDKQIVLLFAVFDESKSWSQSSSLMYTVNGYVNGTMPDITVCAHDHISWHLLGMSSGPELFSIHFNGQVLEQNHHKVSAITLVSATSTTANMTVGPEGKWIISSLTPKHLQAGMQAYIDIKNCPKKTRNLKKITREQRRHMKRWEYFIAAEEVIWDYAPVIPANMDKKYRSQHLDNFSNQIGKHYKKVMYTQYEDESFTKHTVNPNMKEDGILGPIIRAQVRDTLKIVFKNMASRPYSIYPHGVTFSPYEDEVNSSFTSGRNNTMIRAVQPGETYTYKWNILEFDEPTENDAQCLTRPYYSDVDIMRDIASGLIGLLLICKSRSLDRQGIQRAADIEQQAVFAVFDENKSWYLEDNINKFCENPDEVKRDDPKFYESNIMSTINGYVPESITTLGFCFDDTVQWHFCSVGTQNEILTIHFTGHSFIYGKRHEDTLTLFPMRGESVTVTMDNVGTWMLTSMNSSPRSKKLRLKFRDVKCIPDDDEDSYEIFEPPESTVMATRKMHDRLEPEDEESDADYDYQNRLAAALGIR", "sequence (P12259 1047-2224, chain 2 of 2)": "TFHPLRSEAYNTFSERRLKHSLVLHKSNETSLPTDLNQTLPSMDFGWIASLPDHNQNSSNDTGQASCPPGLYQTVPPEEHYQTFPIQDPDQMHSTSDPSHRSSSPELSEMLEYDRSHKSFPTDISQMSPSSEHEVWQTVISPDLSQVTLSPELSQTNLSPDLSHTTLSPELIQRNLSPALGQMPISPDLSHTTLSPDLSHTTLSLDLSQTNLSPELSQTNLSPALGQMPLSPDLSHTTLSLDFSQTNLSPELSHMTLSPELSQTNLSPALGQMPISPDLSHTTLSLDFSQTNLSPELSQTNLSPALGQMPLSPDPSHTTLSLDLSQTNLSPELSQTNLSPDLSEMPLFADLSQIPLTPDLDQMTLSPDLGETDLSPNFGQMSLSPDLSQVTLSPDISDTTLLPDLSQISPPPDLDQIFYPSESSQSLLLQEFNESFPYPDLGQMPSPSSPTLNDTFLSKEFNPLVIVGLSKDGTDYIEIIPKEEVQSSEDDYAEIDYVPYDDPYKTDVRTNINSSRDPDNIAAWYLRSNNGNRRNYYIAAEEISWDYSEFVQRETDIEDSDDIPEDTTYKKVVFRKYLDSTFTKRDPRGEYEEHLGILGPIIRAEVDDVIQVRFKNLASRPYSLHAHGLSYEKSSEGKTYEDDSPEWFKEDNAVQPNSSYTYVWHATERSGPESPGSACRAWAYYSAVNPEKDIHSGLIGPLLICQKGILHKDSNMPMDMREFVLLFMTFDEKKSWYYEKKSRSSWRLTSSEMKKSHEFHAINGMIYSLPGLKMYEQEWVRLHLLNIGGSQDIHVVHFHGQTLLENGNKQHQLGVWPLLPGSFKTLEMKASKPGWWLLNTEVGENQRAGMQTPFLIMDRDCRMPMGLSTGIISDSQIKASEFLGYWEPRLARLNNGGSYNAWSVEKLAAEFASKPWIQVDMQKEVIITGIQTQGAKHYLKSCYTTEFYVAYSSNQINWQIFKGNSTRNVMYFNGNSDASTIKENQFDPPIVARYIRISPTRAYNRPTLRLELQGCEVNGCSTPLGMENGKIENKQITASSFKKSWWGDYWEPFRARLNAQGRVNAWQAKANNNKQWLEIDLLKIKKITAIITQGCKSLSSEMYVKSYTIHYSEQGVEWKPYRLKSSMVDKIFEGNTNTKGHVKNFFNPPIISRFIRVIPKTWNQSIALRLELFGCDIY"}
{"substance": "activated protein C", "values": [{"measurement": "factor Va activity over time after addition of APC (inactivation by APC)", "value": "the replacement of Arg-506 by Gln only prevents the inactivation of the Xa-activated form of factor V by APC (FIG. 8)"}]}
